The text below walks through data of paper PMC12559329.

The target in this series is MutSβ (MSH2-MSH3) (human, UniProt P43246;P20585 1-934;1-1137). The series can be described thus: EMSA; 2 mM ATP, 5 mM Mg2+, pUC19 competitor; 25 mM Tris-acetate pH 7.5, 1 mM DTT, 2 mM ATP, 5 mM MgCl2, 0.1 mg/ml albumin, 0.5 nM DNA, 3 ng/µl pUC19 competitor, 37 °C 30 min; native 6% PAGE. The following applies: protein: recombinant, tags: N-terminal FLAG on MSH2, N-terminal 6xHis on MSH3, copies: 1;1, label: 3'-32P on bottom strand (TdT, dCTP), 5' overhang 1 nt (G) on bottom.

B1: (CAG)4 loop DNA (dsDNA)
DNA 1: ACGTCAGAGTCGCTGCGCTCAGTCGTTCAACTGCTCAGCAGCAGCAGTAACTATCGTCTTGAATCCAACCCGGTAAGATACG
DNA 2: GCGTATCTTACCGGGTTGGATTCAAGACGATAGTTAAGCAGTTGAACGACTGAGCGCAGCGACTCTGACGT
modifications: biotin on both strands (position in bold, not recoverable)
For the molecule B1, for the setting “12-nt extrahelical (CAG)4 loop in top strand”, the binding result is “binds”.

B2: (CAG)4 loop DNA with nick 3 nt downstream of loop (dsDNA)
DNA 1: ACGTCAGAGTCGCTGCGCTCAGTCGTTCAACTGCTCAGCAGCAGCAGTAA
DNA 2: TAACTATCGTCTTGAATCCAACCCGGTAAGATACG
DNA 3: GCGTATCTTACCGGGTTGGATTCAAGACGATAGTTAAGCAGTTGAACGACTGAGCGCAGCGACTCTGACGT
modifications: biotin on bottom strand; others unclear (bold lost)
With B2, where the note is “12-nt loop and nick in top strand, as printed both left and right oligos contain the TAA at the junction (3 nt redundant)”, the binding result is given as “binds”.
